The source of these data is patent US20120316071A1 (published 2012).

Substitutions are numbered along the chain they refer to. Names and notes keep the numbering of the source.

For experiment [1], the target named is T1, rHuman P-Cadherin/Fc Chimera, CF (R&D Systems Cat#861-PC) (human, UniProt P22223 108-654).
T1 construct: Bought recombinant Fc chimera; Fc part of the bought chimera not given
Nature of the experiment: ECL multispot (MSD) assay, antigen spotted on plate, 10 nM Fab.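 Note: bound Fab detected with a TAG-labelled detection antibody (1 h, 20 °C), electrochemiluminescence read and compared with each well's blank, signal/blank of 4 or above scored as hit.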

In experiment [2] the target is T2, rHuman HGF R/c-MET/Fc Chimera, CF (R&D Systems Cat#358-MT/CF) (human, UniProt P08581 25-932).
T2 construct: Bought recombinant Fc chimera; also called HGF R/Fc; hepatocyte growth factor receptor; Fc part of the bought chimera not given
T2 sequence (P08581 25-932, change not shown): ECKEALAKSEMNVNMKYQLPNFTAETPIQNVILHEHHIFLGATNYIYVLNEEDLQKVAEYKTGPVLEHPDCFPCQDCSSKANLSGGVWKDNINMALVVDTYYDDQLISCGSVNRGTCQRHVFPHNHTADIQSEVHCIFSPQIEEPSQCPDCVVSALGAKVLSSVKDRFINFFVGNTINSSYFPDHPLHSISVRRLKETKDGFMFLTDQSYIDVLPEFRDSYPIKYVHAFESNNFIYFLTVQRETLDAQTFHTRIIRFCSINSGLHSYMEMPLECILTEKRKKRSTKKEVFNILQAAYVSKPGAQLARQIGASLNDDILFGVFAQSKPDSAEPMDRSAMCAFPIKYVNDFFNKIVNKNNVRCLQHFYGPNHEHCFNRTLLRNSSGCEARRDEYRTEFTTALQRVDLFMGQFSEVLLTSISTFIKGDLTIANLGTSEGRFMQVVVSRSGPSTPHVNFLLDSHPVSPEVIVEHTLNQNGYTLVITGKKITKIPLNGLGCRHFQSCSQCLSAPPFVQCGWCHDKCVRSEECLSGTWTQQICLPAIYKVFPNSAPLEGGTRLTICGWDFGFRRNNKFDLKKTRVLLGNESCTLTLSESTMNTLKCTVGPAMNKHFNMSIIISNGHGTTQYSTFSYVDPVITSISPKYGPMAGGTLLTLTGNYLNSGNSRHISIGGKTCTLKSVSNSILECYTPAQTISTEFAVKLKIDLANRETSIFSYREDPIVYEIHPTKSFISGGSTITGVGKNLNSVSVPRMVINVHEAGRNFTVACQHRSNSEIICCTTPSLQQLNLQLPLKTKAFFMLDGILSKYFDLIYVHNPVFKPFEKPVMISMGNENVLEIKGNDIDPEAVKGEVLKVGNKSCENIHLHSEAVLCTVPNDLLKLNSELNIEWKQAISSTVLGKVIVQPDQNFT
Described as above.

Experiment [3] has as its target T3, rHuman ErbB2/Fc Chimera, CF (R&D Systems Cat#1129-ER) (human, UniProt P04626 23-652).
T3 construct: Bought recombinant Fc chimera; also called human epidermal growth factor 2 receptor; Fc part of the bought chimera not given
The experiment is described as above.

Experiment [4] addresses T4, rHuman EGF R/Fc Chimera, CF (R&D Systems Cat#344-ER) (human, UniProt P00533 25-645).
T4 construct: Bought recombinant Fc chimera; also called epidermal growth factor receptor; Fc part of the bought chimera not given
The experiment is described as above.

The target of experiment [5] is T5, Recombinant Human DLL4 (R&D Systems Cat#1506-D4/CF) (human, UniProt Q9NR61 27-524).
T5 construct: Bought recombinant protein; also called delta-like protein 4; rHuman DLL4
The experiment is described as above.

For experiment [6], the target named is T6, rHuman IGF-1 sR, CF (R&D Systems Cat#391-GR) (human, UniProt P08069 31-932).
T6 construct: Bought soluble receptor; also called insulin-like growth factor-1 soluble receptor
Described as above.

For experiment [7], the target named is T7, Recombinant Human DLL4 (delta-like protein 4) (human, UniProt Q9NR61 27-529).
T7 construct: Bought recombinant human DLL4 (R&D Systems Cat#1506-D4/CF); also called rHuman DLL4; Delta-like 4
Kind of experiment: 96-well plate ECL binding assay, DLL4 immobilised, Fab in solution.

In experiment [8] the target is T7, Recombinant Human DLL4 (delta-like …). Nature of the experiment: ELISA, DLL4 coated on plate, Fab in solution, absorbance at 450 nm. Background: In an ELISA, binding on a coated surface is turned into a signal by an enzyme label.
In experiment [9] the target is T8, Recombinant Human DLL4 (R&D Systems Cat#1506-D4/CF) (human, UniProt Q9NR61 27-524).
T8 construct: Bought protein (R&D Systems Cat#1506-D4/CF), immobilised on the MSD plate; also called delta-like protein 4; rHuman DLL4
Kind of experiment: ECL (MSD) multispot binding assay, DLL4 immobilised, Fab in solution.

Experiment [10] has as its target T9, rHuman CD44/Fc Chimera, CF (human, UniProt P16070 21-220).
T9 construct: Bought from R&D Systems; not shown: Fc of the bought chimera
Kind of experiment: ECL Multispot (MSD) assay; antigen spotted on plate, Fab in solution.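 Note: fab bound 1 h at 20 °C, detected by TAG-labelled antibody electrochemiluminescence, signal relative to each well's blank, ratio of 4 or more marks a hit.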

Experiment [11] addresses T10, Recombinant Human DLL4 (human, UniProt Q9NR61 27-524).
T10 construct: Bought from R&D Systems; also called delta-like protein 4; rHuman DLL4
The description is as above.

The target in experiment [12] is T11, rHuman IGF-1 sR, (IGF-1 sR), CF (human, UniProt P08069 31-932).
T11 construct: Bought from R&D Systems; also called insulin-like growth factor-1 soluble receptor
The experiment is described as above.

Experiment [13] addresses T12, rHuman HGF R/c-MET/Fc Chimera, CF (human, UniProt P08581 25-932).
T12 construct: Bought from R&D Systems; also called HGF R/Fc; hepatocyte growth factor receptor; not shown: Fc of the bought chimera
The description is as above.

The target of experiment [14] is T13, rHuman ErbB2/Fc Chimera, CF (human, UniProt P04626 23-652).
T13 construct: Bought from R&D Systems; also called human epidermal growth factor 2 receptor; not shown: Fc of the bought chimera
The experiment is described as above.

The target in experiment [15] is T14, rHuman Erythropoietin R/Fc Chimera, CF (human, UniProt P19235 25-250).
T14 construct: Bought from R&D Systems; also called EPO R; EPO R/Fc; not shown: Fc of the bought chimera
T14 sequence (looked up): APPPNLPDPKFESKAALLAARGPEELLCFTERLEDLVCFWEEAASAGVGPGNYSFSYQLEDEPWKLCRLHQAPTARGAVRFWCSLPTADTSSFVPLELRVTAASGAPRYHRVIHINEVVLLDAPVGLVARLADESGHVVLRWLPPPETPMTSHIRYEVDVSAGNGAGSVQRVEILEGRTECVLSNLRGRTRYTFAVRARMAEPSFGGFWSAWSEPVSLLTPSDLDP
Described as above.

For experiment [16], the target named is T15, rHuman EGF R/Fc Chimera, CF (human, UniProt P00533 25-645).
T15 construct: Bought from R&D Systems; also called epidermal growth factor receptor; not shown: Fc of the bought chimera
Described as above.

Experiment [17] deals with T16, rHuman Notch-1/Fc Chimera, CF (human, UniProt P46531 19-526).
T16 construct: Bought from R&D Systems; not shown: Fc of the bought chimera
Described as above.

T12 sequence (P08581 25-932, change not shown): as the sequence (P08581 25-932, change not shown) above

B1: Fab VH1-46_IGHD6-6*01_IGHJ1*01 S102A/S103P/S104F/H111F & L6_IGKJ1*01 (Fab, V domains shown)
VH: QVQLVQSGAEVKKPGASVKVSCKASGYTFTSYYMHWVRQAPGQGLEWMGIINPSGGSTSYAQKFQGRVTMTRDTSTSTVYMELSSLRSEDTAVYYCAREEYAPFSAEYFQFWGQGTLVTVSS
VL: not shown
notes: Fab expressed in E. coli: VH cloned into Plasmid A (CH1, His6 and Flag tags), kappa VL into Plasmid C (kappa CL); also called APFF; H:APFF & L:wt
With B1, the ECL signal in [1] stood at 347; in experiment [2] it was 347; in experiment [3] it was 354; in [4] it was 383; in experiment [5], 78400; in experiment [6], 397.

B2: Fab VH1-46_IGHD6-6*01_IGHJ1*01 S102A/S103P/S104F/H111F & L6_IGKJ1*01 S28N/S30D/S31H (Fab, V domains shown)
VH: B1 VH
VL: EIVLTQSPATLSLSPGERATLSCRASQNVDHYLAWYQQKPGQAPRLLIYDASNRATGIPARFSGSGSGTDFTLTISSLEPEDFAVYYCQQRSNWPPWTFGQGTKVEIKR
notes: Parental template of this NNK series; Fab with CH1 (plasmid A, His6 and Flag tags) and kappa CL (plasmid C); also called H:APFF & L:NDH; NDH
Regarding B2, the “ECL signal” value in experiment [7] worked out at 18700. The “ELISA (Avgerage signal-noise)” value in [8] came out at 0.165.

B3: Fab VH1-46_IGHD6-6*01_IGHJ1*01 S102A/S103P/S104F/H111F (APFF) & L6_IGKJ1*01 N93H (Fab, V domains shown)
VH: B1 VH
VL: B2 VL with N28S, D30S, H31S, N93H
notes: Fab with CH1 plus His6/Flag tags and kappa CL from the expression plasmids; also called APFF & N93H
For B3, in [9], the “ECL signal” value stood at 14700.

B4: Fab VH1-46_IGHD6-6*01_IGHJ1*01 S102A/S103P/S104F (APF) & L6_IGKJ1*01 S92N (Fab, V domains shown)
VH: B1 VH with F111H
VL: B2 VL with N28S, D30S, H31S, S92N
notes: Fab with CH1 plus His6/Flag tags and kappa CL from the expression plasmids; also called APF & S92N
Take B4: in experiment [9], the “ECL signal” value turned out to be 2090.

B5: Fab VH1-46_IGHD6-6*01_IGHJ1*01 S102A/S103P/S104F/H111F (APFF) & L6_IGKJ1*01 S28Q (Fab, V domains shown)
VH: B1 VH
VL: B2 VL with N28Q, D30S, H31S
notes: Fab made in E. coli; the variable domains were cloned into Plasmid A (CH1, His and Flag tags) and Plasmid C (kappa CL); also called APFF / S28Q
B5: the ECL signal is 420 in experiment [10]; 133000 in experiment [11]; 404 in experiment [12]; 380 in [13]; 345 in experiment [14]; 437 in [15]. Moreover, the ECL signal in [16] is 517; in [17] it was 331.

B6: Fab VH1-46_IGHD6-6*01_IGHJ1*01 S102A/S103P/S104F (APF) & L6_IGKJ1*01 R91Q (Fab, V domains shown)
VH: B1 VH with F111H
VL: B2 VL with N28S, D30S, H31S, R91Q
notes: Fab with CH1 plus His6/Flag tags and kappa CL from the expression plasmids; also called APF & R91Q
Take B6: in [9], the “ECL signal” value was found to be 817 and the Signal/Blank is 3.1.

B7: Fab VH1-46_IGHD6-6*01_IGHJ1*01 S102A/S103P/S104F/H111F & L6_IGKJ1*01 S28N/S30D/S31H N53E (Fab, V domains shown)
VH: B1 VH
VL: B2 VL with N53E
notes: Fab with CH1 (plasmid A, His6 and Flag tags) and kappa CL (plasmid C); also called H:APFF & L:NDH N53E
On to B7, for which the “ECL signal” value in [7] came to 17600. The “ELISA (Avgerage signal-noise)” value in experiment [8] amounted to 0.204.
